{"source": "paper doi:10.1101/2024.11.10.622873", "about": "(bioRxiv, 2024)", "molecules": {"B1": {"name": "COP-1, synthetic antibody fragment (sFab), with C-terminal histidine tag (Fab, V domains shown)", "VH": "EVQLVESGGGLVQPGGSLRLSCAASGFNFSSSYIHWVRQAPGKGLEWVASISSSSGSTSYADSVKGRFTISADTSKNTAYLQMNSLRAEDTAVYYCARWFHPWWWWEYLFRGAIDYWGQGTLVTVSS", "VL": "DIQMTQSPSSLSASVGDRVTITCRASQSVSSAVAWYQQKPGKAPKLLIYSASSLYSGVPSRFSGSRSGTDFTLTISSLQPEDFATYYCQQSSSSLITFGQGTKVEIK"}}, "assay_in_all_cases": "BLI", "key": {"[1]": {"biological_target": "COP-1, synthetic antibody fragment (sFab), with C-terminal histidine tag"}, "[2]": {"biological_target": "COP-1, synthetic antibody fragment (sFab), with C-terminal histidine tag", "remark": "listed apart in the source"}, "human claudin-6": {"biological_target": "human claudin-6 (human, UniProt P56747)", "sequence (P56747 whole entry)": "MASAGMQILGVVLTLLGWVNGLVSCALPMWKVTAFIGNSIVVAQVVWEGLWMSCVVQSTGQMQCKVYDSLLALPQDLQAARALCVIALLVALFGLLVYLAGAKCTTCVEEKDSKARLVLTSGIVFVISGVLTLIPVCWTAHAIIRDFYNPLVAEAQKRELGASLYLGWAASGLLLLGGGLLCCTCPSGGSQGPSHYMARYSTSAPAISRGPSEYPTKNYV"}, "human claudin-3": {"biological_target": "human claudin-3 (human, UniProt O15551)", "sequence (O15551 whole entry)": "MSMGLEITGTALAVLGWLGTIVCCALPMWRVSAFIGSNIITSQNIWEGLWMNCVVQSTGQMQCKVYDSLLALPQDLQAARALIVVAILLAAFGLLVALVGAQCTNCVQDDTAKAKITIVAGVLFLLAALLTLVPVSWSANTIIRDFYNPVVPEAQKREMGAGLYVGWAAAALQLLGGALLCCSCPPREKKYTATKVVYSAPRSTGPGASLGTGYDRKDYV"}, "human claudin-19": {"biological_target": "human claudin-19 (human, UniProt Q8N6F1)", "sequence (Q8N6F1 whole entry)": "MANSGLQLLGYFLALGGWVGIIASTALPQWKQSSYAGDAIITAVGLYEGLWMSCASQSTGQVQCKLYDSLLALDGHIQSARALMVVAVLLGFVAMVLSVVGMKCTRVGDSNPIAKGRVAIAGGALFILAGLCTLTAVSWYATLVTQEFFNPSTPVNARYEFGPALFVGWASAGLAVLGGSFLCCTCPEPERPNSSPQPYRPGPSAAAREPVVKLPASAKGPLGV"}, "[3]": {"biological_target": "human claudin-18 splice variant 18.1 (human, UniProt P56856)"}, "[4]": {"biological_target": "human junctional adhesion molecule-A (Homo sapiens, UniProt Q9Y624)"}, "[5]": {"biological_target": "C-terminal domain of Clostridium perfringens enterotoxin, in solution (Clostridium perfringens, UniProt P01558)", "sequence (P01558 198-319)": "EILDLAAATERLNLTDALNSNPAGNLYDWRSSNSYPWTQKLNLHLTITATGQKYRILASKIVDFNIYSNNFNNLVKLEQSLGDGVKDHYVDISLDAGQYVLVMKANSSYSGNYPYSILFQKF"}, "human claudin-17": {"biological_target": "human claudin-17 (human, UniProt P56750)", "sequence (P56750 whole entry)": "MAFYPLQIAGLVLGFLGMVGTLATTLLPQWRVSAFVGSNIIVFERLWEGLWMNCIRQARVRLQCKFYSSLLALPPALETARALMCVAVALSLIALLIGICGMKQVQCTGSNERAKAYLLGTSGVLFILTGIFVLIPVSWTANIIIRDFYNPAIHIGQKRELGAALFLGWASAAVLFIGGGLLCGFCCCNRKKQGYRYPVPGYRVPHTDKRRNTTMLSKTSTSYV"}, "human occludin": {"biological_target": "human occludin (Homo sapiens, UniProt Q16625)"}, "human claudin-9": {"biological_target": "human claudin-9 (human, UniProt O95484)", "sequence (O95484 whole entry)": "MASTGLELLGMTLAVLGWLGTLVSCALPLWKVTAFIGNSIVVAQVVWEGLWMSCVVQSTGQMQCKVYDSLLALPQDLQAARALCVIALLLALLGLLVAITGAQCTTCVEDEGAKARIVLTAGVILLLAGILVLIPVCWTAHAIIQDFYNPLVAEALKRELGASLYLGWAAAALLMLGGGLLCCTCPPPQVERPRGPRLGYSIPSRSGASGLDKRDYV"}, "human claudin-5": {"biological_target": "human claudin-5 (human, UniProt O00501)", "sequence (O00501 whole entry)": "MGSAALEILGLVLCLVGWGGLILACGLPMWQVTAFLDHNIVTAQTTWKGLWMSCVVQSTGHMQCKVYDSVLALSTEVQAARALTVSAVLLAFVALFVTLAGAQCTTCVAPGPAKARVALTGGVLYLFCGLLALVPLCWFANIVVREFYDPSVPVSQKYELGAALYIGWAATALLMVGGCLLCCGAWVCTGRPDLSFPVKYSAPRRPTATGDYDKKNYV"}, "murine claudin-15": {"biological_target": "murine claudin-15 (mouse, UniProt Q9Z0S5)", "sequence (Q9Z0S5 whole entry)": "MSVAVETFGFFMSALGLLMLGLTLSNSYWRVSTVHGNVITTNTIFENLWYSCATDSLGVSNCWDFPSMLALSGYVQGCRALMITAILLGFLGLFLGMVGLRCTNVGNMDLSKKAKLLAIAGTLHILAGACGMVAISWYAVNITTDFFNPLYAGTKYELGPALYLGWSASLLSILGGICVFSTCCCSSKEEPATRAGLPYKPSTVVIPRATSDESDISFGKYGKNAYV"}, "[6]": {"biological_target": "human claudin-18 splice variant 18.2 (human, UniProt P56856-2)"}, "human claudin-1": {"biological_target": "human claudin-1 (human, UniProt O95832)", "sequence (O95832 whole entry)": "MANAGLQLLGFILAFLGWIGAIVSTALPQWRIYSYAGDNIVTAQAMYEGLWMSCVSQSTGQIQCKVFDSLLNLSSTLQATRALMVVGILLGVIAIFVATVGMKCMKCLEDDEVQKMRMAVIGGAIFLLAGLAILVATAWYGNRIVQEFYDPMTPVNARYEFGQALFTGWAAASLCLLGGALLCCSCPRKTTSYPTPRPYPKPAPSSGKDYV"}}, "note": "Like-named read-outs stand apart in the source and are kept apart here.", "data": [{"molecule": "human claudin-4 (from UniProt O14493) (natural protein)", "values": [{"measurement": "Kd", "setting": "[1]", "value": 70.6, "unit": "nM"}, {"measurement": "Kd", "setting": "[2]", "value": 106, "unit": "nM"}, {"measurement": "t1/2 of the complex", "setting": "[2]", "value": 30, "unit": "min"}]}, {"molecule": "B1", "values": [{"measurement": "Kd", "setting": "human claudin-6", "value": 59.5, "unit": "nM"}, {"measurement": "Kd", "setting": "human claudin-3", "value": 57.9, "unit": "nM"}, {"measurement": "Kd", "setting": "human claudin-19", "value": 62.2, "unit": "nM"}, {"measurement": "Kd", "setting": "[3]", "value": 92.4, "unit": "nM"}, {"measurement": "binding result", "setting": "[4]", "value": "no binding (tested: 500 nM)"}, {"measurement": "binding result", "setting": "[5]", "value": "no binding"}, {"measurement": "Kd", "setting": "human claudin-17", "value": 80.2, "unit": "nM"}, {"measurement": "binding result", "setting": "human occludin", "value": "no binding (tested: 500 nM)"}, {"measurement": "Kd", "setting": "human claudin-9", "value": 66, "unit": "nM"}, {"measurement": "Kd", "setting": "human claudin-5", "value": 75.8, "unit": "nM"}, {"measurement": "Kd", "setting": "murine claudin-15", "value": 59, "unit": "nM"}, {"measurement": "Kd", "setting": "[6]", "value": 66.4, "unit": "nM"}, {"measurement": "Kd", "setting": "human claudin-1", "value": 61.3, "unit": "nM"}]}]}
